Measured values as given in publication PMC8695382 (Nature, 2021).

Legend:
Experiment in all cases: cryo-EM structure; yeast replisome–SCF^Dia2 complexes assembled in the absence of DNA (off DNA); 3.9 Å
Details in all cases: both partners purified
Mcm3 = target: T1, Mcm3 (Saccharomyces cerevisiae, UniProt P24279 1-971)
T1 construct: Mcm3, S. cerevisiae; Subunit of m2; source: purified as part of CMG

Mcm7 = target: T2, Mcm7 (Saccharomyces cerevisiae, UniProt P38132 1-845)
T2 construct: Mcm7, S. cerevisiae; Subunit of m2; source: purified as part of CMG
T2 sequence: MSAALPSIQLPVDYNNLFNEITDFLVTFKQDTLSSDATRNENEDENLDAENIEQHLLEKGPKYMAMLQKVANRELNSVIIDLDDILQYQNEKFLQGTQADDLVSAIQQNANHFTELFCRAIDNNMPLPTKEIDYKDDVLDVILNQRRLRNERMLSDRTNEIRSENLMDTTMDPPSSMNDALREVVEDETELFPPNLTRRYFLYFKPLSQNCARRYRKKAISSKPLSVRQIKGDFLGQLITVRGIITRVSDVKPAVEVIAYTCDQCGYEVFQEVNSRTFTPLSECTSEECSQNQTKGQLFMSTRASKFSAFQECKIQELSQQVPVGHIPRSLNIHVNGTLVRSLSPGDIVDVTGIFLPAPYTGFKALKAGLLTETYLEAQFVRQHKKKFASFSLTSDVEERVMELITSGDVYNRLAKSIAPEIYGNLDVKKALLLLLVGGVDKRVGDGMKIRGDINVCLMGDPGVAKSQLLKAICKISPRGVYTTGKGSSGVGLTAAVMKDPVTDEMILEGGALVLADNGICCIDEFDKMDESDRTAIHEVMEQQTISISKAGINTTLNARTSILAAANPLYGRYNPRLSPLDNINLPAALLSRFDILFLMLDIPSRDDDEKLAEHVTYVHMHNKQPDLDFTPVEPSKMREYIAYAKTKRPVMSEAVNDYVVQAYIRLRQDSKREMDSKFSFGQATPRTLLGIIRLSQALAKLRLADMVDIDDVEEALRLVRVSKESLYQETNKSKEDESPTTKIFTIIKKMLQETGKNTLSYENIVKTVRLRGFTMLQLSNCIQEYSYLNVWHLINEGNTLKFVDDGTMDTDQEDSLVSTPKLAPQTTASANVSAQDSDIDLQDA

Mcm5 = target: T3, Mcm5 (Saccharomyces cerevisiae, UniProt P29496 1-775)
T3 construct: Mcm5, S. cerevisiae; Subunit of m2; source: purified as part of CMG
T3 sequence: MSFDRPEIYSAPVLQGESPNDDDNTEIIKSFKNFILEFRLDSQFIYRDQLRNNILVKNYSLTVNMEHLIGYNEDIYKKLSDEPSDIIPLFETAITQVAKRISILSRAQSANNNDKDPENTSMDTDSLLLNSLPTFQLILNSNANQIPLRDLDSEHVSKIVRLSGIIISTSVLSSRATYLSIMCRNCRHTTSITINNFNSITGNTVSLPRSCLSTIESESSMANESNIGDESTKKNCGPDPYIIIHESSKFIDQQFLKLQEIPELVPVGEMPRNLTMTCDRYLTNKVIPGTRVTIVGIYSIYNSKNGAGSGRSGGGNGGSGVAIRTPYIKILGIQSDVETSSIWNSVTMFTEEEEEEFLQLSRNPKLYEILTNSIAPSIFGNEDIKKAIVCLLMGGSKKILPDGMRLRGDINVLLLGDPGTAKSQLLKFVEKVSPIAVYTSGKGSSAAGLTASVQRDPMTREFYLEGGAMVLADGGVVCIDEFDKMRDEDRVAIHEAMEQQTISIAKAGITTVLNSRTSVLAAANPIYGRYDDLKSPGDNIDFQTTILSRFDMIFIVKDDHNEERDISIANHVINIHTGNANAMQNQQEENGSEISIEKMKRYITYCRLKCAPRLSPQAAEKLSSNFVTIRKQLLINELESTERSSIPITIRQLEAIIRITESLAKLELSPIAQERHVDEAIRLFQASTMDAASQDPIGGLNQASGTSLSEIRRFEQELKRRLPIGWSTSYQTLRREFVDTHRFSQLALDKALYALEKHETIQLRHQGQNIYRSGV

Measured: binding result

T1 sequence (P24279 whole entry): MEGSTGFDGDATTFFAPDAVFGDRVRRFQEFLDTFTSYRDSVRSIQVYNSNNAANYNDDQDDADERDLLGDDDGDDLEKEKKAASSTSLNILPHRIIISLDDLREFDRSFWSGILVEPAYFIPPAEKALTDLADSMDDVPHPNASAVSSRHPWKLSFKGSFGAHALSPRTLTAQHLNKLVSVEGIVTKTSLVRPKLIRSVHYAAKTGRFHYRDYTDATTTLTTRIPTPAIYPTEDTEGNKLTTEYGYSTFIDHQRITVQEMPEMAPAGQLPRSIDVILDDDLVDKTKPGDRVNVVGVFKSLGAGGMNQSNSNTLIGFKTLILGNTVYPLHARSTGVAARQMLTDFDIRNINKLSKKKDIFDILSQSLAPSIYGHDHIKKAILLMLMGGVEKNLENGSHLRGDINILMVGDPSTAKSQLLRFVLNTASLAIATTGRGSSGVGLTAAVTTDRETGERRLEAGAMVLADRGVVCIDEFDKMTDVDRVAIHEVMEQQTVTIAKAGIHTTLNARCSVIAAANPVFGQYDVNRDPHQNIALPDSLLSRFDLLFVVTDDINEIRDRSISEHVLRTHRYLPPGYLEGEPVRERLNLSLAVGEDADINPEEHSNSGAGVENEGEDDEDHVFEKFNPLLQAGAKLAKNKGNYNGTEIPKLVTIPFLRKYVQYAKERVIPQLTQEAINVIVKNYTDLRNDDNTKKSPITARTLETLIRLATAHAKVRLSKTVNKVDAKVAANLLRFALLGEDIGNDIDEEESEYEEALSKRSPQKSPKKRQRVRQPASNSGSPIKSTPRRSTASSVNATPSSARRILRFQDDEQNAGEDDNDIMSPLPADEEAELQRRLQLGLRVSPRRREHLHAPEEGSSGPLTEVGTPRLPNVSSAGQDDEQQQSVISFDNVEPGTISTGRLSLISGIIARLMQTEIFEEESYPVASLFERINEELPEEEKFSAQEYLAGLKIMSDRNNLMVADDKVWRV

B1: Dia2 (natural protein, Saccharomyces cerevisiae)
chain: MSSPGNSGVAIDSTVLKAIELGTRLFKSGEYLQAKRIFTNALRVCDSYSQEQIMRIRNAYQLDTARPDNKRLYHPRYIKILDNICACYEKLNDLKSCLDVSQRLLKLEPGNIKCYIRCTRTLIKLKDWKRAYKTCSRGLQLCNNDSNHLRQQKQFIKNNMVQKQDGKRSYIDPLEETKIAKKKKNNNVLESLPKKKIKGSTKKTDLVGNLPIEILPIIFQRFTTKELVTLSLVCNKWRDKILYHLDCFQEFNLAPINFKNFVKFMDFLQQNFTRTYRKYILSQVKVSSRITSEELRITQLLFSKMPKCINIERLILSMPTLTTTQIFKLMVRGGTDFFTRLLELSLMITYRPDKQHELEILQTCPLLKKIELIFVNSLVPIFDGNNSVGRDGSFNVMARHTNMQISTADNDEQGIVEEKVIYSELEKITLICDKKKIKNFPLCRALLRGQFPLLQKLTITGVTFPMNNQDIMNFQWLLNFPDLKELWIEDNDNCELSKFLQLLKFSNVWKNLEKLTFRENKLYPIVNLDEDQPVTNDDEVPSMLFYKENLQNLEKLDLMGTSISGSALTRLCEQEYLDGRKLRSLNIGNCPNIQFPNNHAHTARMILDVNAVLKRLSKLEEINLSHLSSLNDSTMKSFIINVPFLENLKRLDISHNFEITGISIYEFLKKFQMDHDNEAGGQPLAYLNIDGCSQVSHITVNMIRAQNLVTQVDCVYERDVWRKFGINSYSYS
notes: Dia2, F-box protein, S. cerevisiae; model built for F-box (211–247), LRRs (248–716) and C-terminal tail (717–732); N-terminal TPR domain not visible; Subunit of m1 as it stands in the cryo-EM samples; also called Dia2^LRR (its leucine-rich repeat domain); source: purified as part of SCF^Dia2
binds: Mcm3 | Mcm7 | Mcm5
